How the values were obtained:
[1] = target: T1, α5β1 integrin on cells (U937 and other CD40-negative cell lines) (human, UniProt P08648 42-1049; P05556 21-798); experiment: cell-based or functional assay
[2] = target: T1, α5β1 integrin on cells (U937 and other …); experiment: flow cytometry, competition with sCD40L-Alexa on U937 cells
[3] = target: T2, CD40 on BJAB B cells (human, UniProt P25942 21-277); experiment: flow cytometry, competition with sCD40L-Alexa on BJAB cells
T2 construct: whole, on cells; also called CD40-positive human BJAB B cell line
T2 sequence (P25942 21-277): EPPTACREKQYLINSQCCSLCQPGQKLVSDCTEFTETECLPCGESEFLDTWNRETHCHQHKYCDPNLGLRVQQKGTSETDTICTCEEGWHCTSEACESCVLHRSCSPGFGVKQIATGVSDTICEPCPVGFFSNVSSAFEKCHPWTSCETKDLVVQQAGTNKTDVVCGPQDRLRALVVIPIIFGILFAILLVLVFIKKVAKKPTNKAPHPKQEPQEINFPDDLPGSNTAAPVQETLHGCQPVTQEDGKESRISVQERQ

T1 sequence (P08648 42-1049, chain 1 of 2): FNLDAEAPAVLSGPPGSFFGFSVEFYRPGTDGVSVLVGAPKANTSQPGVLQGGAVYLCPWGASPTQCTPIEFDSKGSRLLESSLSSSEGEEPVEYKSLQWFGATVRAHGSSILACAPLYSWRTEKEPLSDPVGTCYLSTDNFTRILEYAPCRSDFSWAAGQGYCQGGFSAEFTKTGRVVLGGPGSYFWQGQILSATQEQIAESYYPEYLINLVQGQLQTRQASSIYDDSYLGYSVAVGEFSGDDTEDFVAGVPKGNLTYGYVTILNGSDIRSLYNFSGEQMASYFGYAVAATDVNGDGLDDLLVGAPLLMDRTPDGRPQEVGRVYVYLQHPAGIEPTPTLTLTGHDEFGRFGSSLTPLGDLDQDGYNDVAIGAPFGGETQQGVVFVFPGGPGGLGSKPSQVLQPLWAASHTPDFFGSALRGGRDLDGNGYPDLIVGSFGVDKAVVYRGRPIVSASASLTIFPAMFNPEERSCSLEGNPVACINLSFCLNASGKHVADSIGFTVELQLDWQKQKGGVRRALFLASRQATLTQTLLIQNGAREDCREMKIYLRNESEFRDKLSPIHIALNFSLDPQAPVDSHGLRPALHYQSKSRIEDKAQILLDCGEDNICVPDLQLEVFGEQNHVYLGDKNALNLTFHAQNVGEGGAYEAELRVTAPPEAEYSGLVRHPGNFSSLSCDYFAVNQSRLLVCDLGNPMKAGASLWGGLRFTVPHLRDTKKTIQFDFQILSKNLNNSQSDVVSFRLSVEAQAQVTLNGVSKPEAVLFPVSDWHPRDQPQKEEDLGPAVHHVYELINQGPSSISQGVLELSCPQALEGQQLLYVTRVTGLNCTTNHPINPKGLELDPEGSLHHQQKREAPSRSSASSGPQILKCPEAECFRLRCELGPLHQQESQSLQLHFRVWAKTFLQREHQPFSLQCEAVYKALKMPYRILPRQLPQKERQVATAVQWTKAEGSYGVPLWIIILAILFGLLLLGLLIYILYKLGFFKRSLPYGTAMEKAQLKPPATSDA
T1 sequence (P05556 21-798, chain 2 of 2): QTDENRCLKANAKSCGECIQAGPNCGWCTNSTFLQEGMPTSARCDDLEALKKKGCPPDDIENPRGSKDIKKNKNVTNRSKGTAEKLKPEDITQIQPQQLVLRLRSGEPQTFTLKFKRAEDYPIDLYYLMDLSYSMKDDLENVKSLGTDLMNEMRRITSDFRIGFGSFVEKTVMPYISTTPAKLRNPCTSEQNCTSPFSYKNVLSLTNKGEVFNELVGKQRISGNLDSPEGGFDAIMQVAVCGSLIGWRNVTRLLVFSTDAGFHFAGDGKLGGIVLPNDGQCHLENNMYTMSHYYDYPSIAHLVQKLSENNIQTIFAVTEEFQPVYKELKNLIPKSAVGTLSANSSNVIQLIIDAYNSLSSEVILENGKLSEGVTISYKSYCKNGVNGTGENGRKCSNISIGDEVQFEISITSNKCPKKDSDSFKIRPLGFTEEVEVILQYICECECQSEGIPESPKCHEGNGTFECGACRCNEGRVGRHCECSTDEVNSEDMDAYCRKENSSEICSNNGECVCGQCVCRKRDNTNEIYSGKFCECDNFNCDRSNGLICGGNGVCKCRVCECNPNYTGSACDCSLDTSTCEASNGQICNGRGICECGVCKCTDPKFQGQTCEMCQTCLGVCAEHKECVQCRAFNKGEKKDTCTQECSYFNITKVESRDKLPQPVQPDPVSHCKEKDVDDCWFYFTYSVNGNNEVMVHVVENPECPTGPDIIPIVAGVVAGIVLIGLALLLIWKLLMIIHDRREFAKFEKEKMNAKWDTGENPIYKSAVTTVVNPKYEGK

B1: Recombinant trimeric soluble CD40L (ligand, UniProt P29965 51-261, looked up)
chain: DKIEDERNLHEDFVFMKTIQRCNTGERSLSLLNCEEIKSQFEGFVKDIMLNKEETKKENSFEMQKGDQNPQIAAHVISEASSKTTSVLQWAEKGYYTMSNNLVTLENGKQLTVKRQGLYYIYAQVTFCSNREASSQAPFIASLCLKSPGRFERILLRAANTHSSAKPCGQQSIHLGGVFELQPGASVFVNVTDPSQVSHGTGFTSFGLLKL
modifications: Alexa Fluor-488 label in the form called rsCD40L-A; unlabelled in the solid phase assay and in cell stimulation
IL-8 mRNA expression (RT-PCR, U937 cells) [1]: 2.5 fold increase

B2: CD40L Y170A (monomeric soluble human CD40L mutant) (ligand)
chain: MQKGDQNPQIAAHVISEASSKTTSVLQWAEKGYYTMSNNLVTLENGKQLTVKRQGLYAIYAQVTFCSNREASSQAPFIASLCLKSPGRFERILLRAANTHSSAKPCGQQSIHLGGVFELQPGASVFVNVTDPSQVSHGTGFTSFGLLKL
notes: Made in Drosophila S2 cells from the soluble human CD40L construct M113 to L261 with Y170 changed to alanine; Numbering of Y170 is that of full-length human CD40L; also called hsCD40LY170A; hCD40L mutated in its Y170 residue; not shown: C-terminal V5 / hexahistidine tag from the pMT-BiP/V5-His A vector
binding result [2]: binds | binding result [3]: binds

B3: CD40L G227A (monomeric soluble human CD40L mutant) (ligand)
chain: MQKGDQNPQIAAHVISEASSKTTSVLQWAEKGYYTMSNNLVTLENGKQLTVKRQGLYYIYAQVTFCSNREASSQAPFIASLCLKSPGRFERILLRAANTHSSAKPCGQQSIHLGAVFELQPGASVFVNVTDPSQVSHGTGFTSFGLLKL
notes: Made in Drosophila S2 cells from the soluble human CD40L construct M113 to L261 with G227 changed to alanine; also called hCD40L mutated in its G227 residue; not shown: C-terminal V5 / hexahistidine tag from the pMT-BiP/V5-His A vector
binding result [2]: binds | binding result [3]: binds
